The values that follow come from article PMC5739758, “Human oncoprotein Musashi-2 N-terminal RNA recognition motif backbone assignment and identification of RNA-binding pocket”.

For data set [1], the target named is T1, MSI2-RRM1 (human, UniProt Q96DH6 21-111). The experiment in a line: TR-FRET; 2 nM RNA; no detectable binding in nM range; TR-FRET at room temperature (FP per earlier publication; binding buffers not given; protein stored in 50 mM Tris-HCl pH 8.0, 500 mM NaCl); NMR 20 mM MES pH 6.0, 150 mM NaCl, 5% D2O, 298 K. To be noted: protein: recombinant; tags: N-terminal His6 + TEV site (residues -3 to 20); label: 3' biotin.

Data set [2] has as its target T1, MSI2-RRM1. The experiment in a line: TR-FRET; 2 nM RNA; TR-FRET at room temperature (FP per earlier publication; binding buffers not given; protein stored in 50 mM Tris-HCl pH 8.0, 500 mM NaCl); NMR 20 mM MES pH 6.0, 150 mM NaCl, 5% D2O, 298 K. Particulars: protein: recombinant; tags: N-terminal His6 + TEV site (residues -3 to 20); label: 3' biotin. Background: In TR-FRET formats the signal depends on donor and acceptor labels being close together.

In data set [3] the target is T1, MSI2-RRM1. The experiment in a line: NMR; 1H-15N HSQC titration, 1:1, slow exchange; TR-FRET at room temperature (FP per earlier publication; binding buffers not given; protein stored in 50 mM Tris-HCl pH 8.0, 500 mM NaCl); NMR 20 mM MES pH 6.0, 150 mM NaCl, 5% D2O, 298 K. To be noted: protein: recombinant; tags: N-terminal His6 + TEV site (residues -3 to 20).

T1 sequence (Q96DH6 21-111): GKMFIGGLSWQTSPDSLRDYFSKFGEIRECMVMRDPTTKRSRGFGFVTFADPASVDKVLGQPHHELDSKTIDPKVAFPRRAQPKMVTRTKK

As for UAGCAUCAUCAUUUA (ssRNA) [Numb-mutBiotin], the binding result with MSI2-RRM1 [1] was “no binding”.
In the case of UAGGUAGUAGUUUUA (ssRNA) [NumbBiotin], the dissociation constant (Kd) with MSI2-RRM1 [2] came out at 2.07 nM.
GUAGU (ssRNA) [Numb5]: the binding result in the data set with MSI2-RRM1 [3] is reported as “binds”.

Usually Kd stands for the concentration at which binding is half-saturated.
